PMC5296656

Target: RpL4 (as it stands in the Acl4·RpL4 complex) (not stated (S. cerevisiae or C. thermophilum cDNA cloned))
Test: SEC; Superdex 200 10/300 GL, 20 mM TRIS pH 8.0, 100 mM NaCl, 5 mM DTT; pre-incubation 1 h at 4 °C; fractions on SDS-PAGE, Coomassie

stoichiometry N (Acl4 per RpL4): 2
Substance: Acl4 (untagged, purified) (natural protein)
